Measurements as given in publication PMC10636135, “Computational design of highly efficient thermostable MHET hydrolases and dual enzyme system for PET recycling” (Communications Biology, 2023).

What was measured:
[1] = substrate: O=C(O)c1ccc(C(=O)OCCO)cc1; assay: MHET hydrolysis kinetics; format: biochemical, unidentified prokaryotic organism; conditions: conditions in supplement; pH 7.5; 50.0 °C
From the text: MHET hydrolysis kinetics on LCC-ICCG | (LCC-ICCG and FAST-PETase) had weak catalytic activities with regard to the hydrolysis of MHET

[2] = substrate: O=C(O)c1ccc(C(=O)OCCO)cc1; assay: initial rates, TPA by HPLC, Michaelis-Menten fit; format: biochemical, Pseudideonella sakaiensis; conditions: 50 mM sodium phosphate, pH 7.5, 50 °C
[3] = substrate: O=C(O)c1ccc(C(=O)OCCO)cc1; assay: initial rates, TPA by HPLC, Michaelis-Menten fit; format: biochemical, Geobacillus stearothermophilus; conditions: 50 mM sodium phosphate, pH 7.5, 50 °C, M3
From the text: initial rates, TPA by HPLC, Michaelis-Menten fit on Est30 (1TQH scaffold; wild-type carboxylesterase) | single variants M1 (G130L) and M3 (G130F) (Table S13) had improved catalytic efficiencies

[4] = substrate: O=C(O)c1ccc(C(=O)OCCO)cc1; assay: initial rates, TPA by HPLC, Michaelis-Menten fit; format: biochemical, Geobacillus stearothermophilus; conditions: 50 mM sodium phosphate, pH 7.5, 50 °C, 10 min, 0.5 μM enzyme
[5] = substrate: O=C(O)c1ccc(C(=O)OCCO)cc1; assay: initial rates, TPA by HPLC, Michaelis-Menten fit; format: biochemical, Geobacillus stearothermophilus; conditions: 50 mM sodium phosphate, pH 7.5, 50 °C, 10 min, 0.5 μM enzyme; remark: listed apart in the source
From the text: initial rates, TPA by HPLC, Michaelis-Menten fit on Est30 (1TQH scaffold; wild-type carboxylesterase)

B1: LCC-ICCG (unidentified prokaryotic organism; D238C/F243I/S283C/Y127G) (protein)
chain: QSNPYQRGPNPTRSALTADGPFSVATYTVSRLSVSGFGGGVIYYPTGTSLTFGGIAMSPGYTADASSLAWLGRRLASHGFVVLVINTNSRFDGPDSRASQLSAALNYLRTSSPSAVRARLDANRLAVAGHSMGGGGTLRIAEQNPSLKAAVPLTPWHTDKTFNTSVPVLIVGAEADTVAPVSQHAIPFYQNLPSTTPKVYVELCNASHIAPNSNNAAISVYTISWMKLWVDNDTRYRQFLCNVNDPALCDFRTNNRHCQ
B1 gave a Km [1] of 20.13 ± 3.69 mM and a kcat [1] of 1.41 ± 0.13 s⁻¹.

B2: FAST-PETase (Pseudideonella sakaiensis; D186H/N233K/R224Q/R280A/S121E) (protein)
chain: QTNPYARGPNPTAASLEASAGPFTVRSFTVSRPSGYGAGTVYYPTNAGGTVGAIAIVPGYTARQSSIKWWGPRLASHGFVVITIDTNSTLDQPESRSSQQMAALRQVASLNGTSSSPIYGKVDTARMGVMGWSMGGGGSLISAANNPSLKAAAPQAPWHSSTNFSSVTVPTLIFACENDSIAPVNSSALPIYDSMSQNAKQFLEIKGGSHSCANSGNSNQALIGKKGVAWMKRFMDNDTRYSTFACENPNSTAVSDFRTANCS
B2 was tested, and the Km [2] was 33.87 ± 2.82 mM and the kcat [2] was 2.34 ± 0.14 s⁻¹.

B3: Est30 (1TQH scaffold; wild-type carboxylesterase) (Geobacillus stearothermophilus; G129F) (protein)
chain: MKIVPPKPFFFEAGERAVLLLHGFTGNSADVRMLGRFLESKGYTCHAPIYKGHGVPPEELVHTGPDDWWQDVMNGYEFLKNKGYEKIAVAGLSLGGVFSLKLGYTVPIEGIVTMCAPMYIKSEETMYEFVLEYAREYKKREGKSEEQIEQEMEKFKQTPMKTLKALQELIADVRDHLDLIYAPTFVVQARHDEMINPDSANIIYNEIESPVKQIKWYEQSGHVITLDQEKDQLHEDIYAFLESLDW
notes: E. coli BL21(DE3), pET-22b(+) NdeI/XhoI, C-terminal His6 tag kept, HisTrap purified
With B3 the Km [3] was 1.12 ± 0.45 mM and the kcat [3] was 0.75 ± 0.05 s⁻¹.

B4: Est30 (1TQH scaffold; wild-type carboxylesterase) (Geobacillus stearothermophilus; G129L/I170K/M126S) (protein)
chain: MKIVPPKPFFFEAGERAVLLLHGFTGNSADVRMLGRFLESKGYTCHAPIYKGHGVPPEELVHTGPDDWWQDVMNGYEFLKNKGYEKIAVAGLSLGGVFSLKLGYTVPIEGIVTMCAPMYIKSEETSYELVLEYAREYKKREGKSEEQIEQEMEKFKQTPMKTLKALQELKADVRDHLDLIYAPTFVVQARHDEMINPDSANIIYNEIESPVKQIKWYEQSGHVITLDQEKDQLHEDIYAFLESLDW
notes: as for B3
Work on B4 yielded a Km ([4]; M14 (KLS-MHETase)) of 1.73 ± 0.24 mM, a kcat ([4]; M14 (KLS-MHETase)) of 21.8 ± 0.62 s⁻¹ and a kcat/Km ([4]; M14 (KLS-MHETase)) of 12600 M⁻¹ s⁻¹.

B5: Est30 (1TQH scaffold; wild-type carboxylesterase) (Geobacillus stearothermophilus; G129L/I170K) (protein)
chain: MKIVPPKPFFFEAGERAVLLLHGFTGNSADVRMLGRFLESKGYTCHAPIYKGHGVPPEELVHTGPDDWWQDVMNGYEFLKNKGYEKIAVAGLSLGGVFSLKLGYTVPIEGIVTMCAPMYIKSEETMYELVLEYAREYKKREGKSEEQIEQEMEKFKQTPMKTLKALQELKADVRDHLDLIYAPTFVVQARHDEMINPDSANIIYNEIESPVKQIKWYEQSGHVITLDQEKDQLHEDIYAFLESLDW
notes: as for B3
Work on B5 yielded a Km ([4]; M8 (KL-MHETase)) of 4.56 ± 0.75 mM, a kcat ([4]; M8 (KL-MHETase)) of 21.4 ± 1.12 s⁻¹ and a kcat/Km ([4]; M8 (KL-MHETase)) of 4700 M⁻¹ s⁻¹.

B6: Est30 (1TQH scaffold; wild-type carboxylesterase) (Geobacillus stearothermophilus; I170K) (protein)
chain: MKIVPPKPFFFEAGERAVLLLHGFTGNSADVRMLGRFLESKGYTCHAPIYKGHGVPPEELVHTGPDDWWQDVMNGYEFLKNKGYEKIAVAGLSLGGVFSLKLGYTVPIEGIVTMCAPMYIKSEETMYEGVLEYAREYKKREGKSEEQIEQEMEKFKQTPMKTLKALQELKADVRDHLDLIYAPTFVVQARHDEMINPDSANIIYNEIESPVKQIKWYEQSGHVITLDQEKDQLHEDIYAFLESLDW
notes: as for B3
Work on B6 yielded a Km ([4]; M2, substrate range 2-20 mM) of 53.70 ± 34.77 mM, a kcat ([4]; M2, substrate range 2-20 mM) of 36 ± 18.2 s⁻¹ and a kcat/Km ([4]; M2, substrate range 2-20 mM) of 670 M⁻¹ s⁻¹.

B7: Est30 (1TQH scaffold; wild-type carboxylesterase) (Geobacillus stearothermophilus; G129F/I170K/M126S) (protein)
chain: MKIVPPKPFFFEAGERAVLLLHGFTGNSADVRMLGRFLESKGYTCHAPIYKGHGVPPEELVHTGPDDWWQDVMNGYEFLKNKGYEKIAVAGLSLGGVFSLKLGYTVPIEGIVTMCAPMYIKSEETSYEFVLEYAREYKKREGKSEEQIEQEMEKFKQTPMKTLKALQELKADVRDHLDLIYAPTFVVQARHDEMINPDSANIIYNEIESPVKQIKWYEQSGHVITLDQEKDQLHEDIYAFLESLDW
notes: as for B3
B7 showed a Km ([4]; M13) of 2.59 ± 0.41 mM, a kcat ([4]; M13) of 21 ± 0.83 s⁻¹ and a kcat/Km ([4]; M13) of 8110 M⁻¹ s⁻¹.

B8: Est30 (1TQH scaffold; wild-type carboxylesterase) (Geobacillus stearothermophilus; G129L) (protein)
chain: MKIVPPKPFFFEAGERAVLLLHGFTGNSADVRMLGRFLESKGYTCHAPIYKGHGVPPEELVHTGPDDWWQDVMNGYEFLKNKGYEKIAVAGLSLGGVFSLKLGYTVPIEGIVTMCAPMYIKSEETMYELVLEYAREYKKREGKSEEQIEQEMEKFKQTPMKTLKALQELIADVRDHLDLIYAPTFVVQARHDEMINPDSANIIYNEIESPVKQIKWYEQSGHVITLDQEKDQLHEDIYAFLESLDW
notes: as for B3
B8 showed a Km ([5]; M1) of 5.36 ± 1.13 mM, a kcat ([5]; M1) of 2.97 ± 0.21 s⁻¹ and a kcat/Km ([5]; M1) of 550 M⁻¹ s⁻¹.

B9: Est30 (1TQH scaffold; wild-type carboxylesterase) (Geobacillus stearothermophilus) (protein)
chain: MKIVPPKPFFFEAGERAVLLLHGFTGNSADVRMLGRFLESKGYTCHAPIYKGHGVPPEELVHTGPDDWWQDVMNGYEFLKNKGYEKIAVAGLSLGGVFSLKLGYTVPIEGIVTMCAPMYIKSEETMYEGVLEYAREYKKREGKSEEQIEQEMEKFKQTPMKTLKALQELIADVRDHLDLIYAPTFVVQARHDEMINPDSANIIYNEIESPVKQIKWYEQSGHVITLDQEKDQLHEDIYAFLESLDW
notes: as for B3
Protein B9 has a Km [5] of 8.98 ± 2.49 mM, a kcat [5] of 1.17 ± 0.14 s⁻¹ and a kcat/Km [5] of 130 M⁻¹ s⁻¹.
